Measurements as given in patent publication US10358672B2, “7-β-hydroxysteroid dehydrogenase mutants and process for the preparation of ursodeoxycholic acid” (Pharmazell GmbH, priority 2014, dated 2019).

Key:
[1] = target: 7β-HSDH obtainable from Collinsella aerofaciens DSM 3979 (Collinsella aerofaciens, UniProt A4ECA9); settings: cited from earlier work
[2] = substrate: C[C@H](CCC(=O)O)[C@H]1CC[C@H]2[C@@H]3C(=O)C[C@@H]4CC(=O)CC[C@]4(C)[C@H]3CC(=O)[C@]12C; assay: cells, lysate or membranes named; settings: other: purified enzyme, 340 nm, 50 mM KPi pH 8.0, substrate DHCA / cofactor NADPH
[3] = substrate: NC(=O)C1=CN([C@@H]2O[C@H](COP(=O)(O)OP(=O)(O)OC[C@H]3O[C@@H](n4cnc5c(N)ncnc54)[C@H](OP(=O)(O)O)[C@@H]3O)[C@@H](O)[C@H]2O)C=CC1; assay: cells, lysate or membranes named; settings: other: purified enzyme, 340 nm, 50 mM KPi pH 8.0, substrate DHCA / cofactor NADPH
[4] = Cofactor specificity of 7β-HSDH types (compilation of improvements); format: biochemical
[5] = Photometric activity determination of 7β-HSDH and mutants (decrease in absorbance at 340 nm, DHCA reduction with NADPH); format: biochemical
Description: The activity of the 7β-HSDH and of the mutants was determined using a photometric assay, where the decrease in absorbance was measured at 340 nm over a period of 30 seconds.
The expression [R64E] in the first column of the table means that the arginine (R) in position 64 of the protein sequence had been replaced by glutamic acid (E) in the mutant in question. The respective amino acid is abbreviated using the international one-letter code. Analogously, [R64D] means that an aspartic acid has been introduced at this position.

[6] = Table 4, variants modified at position 64, 10 mM DHCA, NADPH, KPi pH 8.0
[7] = Table 9, variants modified at position 17

7β-HSDH obtainable from Collinsella aerofaciens DSM 3979, sequence (A4ECA9 whole entry): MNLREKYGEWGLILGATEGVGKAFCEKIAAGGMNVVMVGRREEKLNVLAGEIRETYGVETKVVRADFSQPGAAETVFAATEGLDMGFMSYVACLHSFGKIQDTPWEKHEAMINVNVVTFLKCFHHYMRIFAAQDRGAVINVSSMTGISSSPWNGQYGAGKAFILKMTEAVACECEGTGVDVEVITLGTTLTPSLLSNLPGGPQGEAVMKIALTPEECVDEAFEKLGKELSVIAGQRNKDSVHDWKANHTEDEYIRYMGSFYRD

For `C[C@H](CCC(=O)O)[C@H]1CC[C@H]2[C@@H]3C(=O)C[C@@H]4C[C@H](O)CC[C@]4(C)[C@H]3CC[C@]12C` [Mutant 7-Keto-LCA, 7-keto-lithocholic acid], the Vmax [1] is given as 30.77 U/mg Protein and the kcat [1] is given as 950.77.

In the case of `C[C@H](CCC(=O)O)[C@H]1CC[C@H]2[C@@H]3[C@@H](O)C[C@@H]4C[C@H](O)CC[C@]4(C)[C@H]3CC[C@]12C` [UDCA, Ursodeoxycholic acid], the kcat [1] is listed as 1179.39.

In the case of `NC(=O)C1=CN([C@@H]2O[C@H](COP(=O)(O)OP(=O)(O)OC[C@H]3O[C@@H](n4cnc5c(N)ncnc54)[C@H](OP(=O)(O)O)[C@@H]3O)[C@@H](O)[C@H]2O)C=CC1` [NADPH], the Vmax [1] is given as 33.44 U/mg Protein and the kcat [1] is given as 1033.44.

B1: Collinsella aerofaciens 7β-HSDH mutant [R64E], with His tag, SEQ ID NO:4 (Collinsella aerofaciens ATCC 25986; R64E) (protein)
chain: MNLREKYGEWGLILGATEGVGKAFCEKIAAGGMNVVMVGRREEKLNVLAGEIRETYGVETKVVEADFSQPGAAETVFAATEGLDMGFMSYVACLHSFGKIQDTPWEKHEAMINVNVVTFLKCFHHYMRIFAAQDRGAVINVSSMTGISSSPWNGQYGAGKAFILKMTEAVACECEGTGVDVEVITLGTTLTPSLLSNLPGGPQGEAVMKIALTPEECVDEAFEKLGKELSVIAGQRNKDSVHDWKANHTEDEYIRYMGSFYRDLEHHHHHH
B1 showed a Km [2] of 81.01 ± 18.9 µM, a Vmax [2] of 41.6 µmol/min/mg and a Km [3] of 45.48 ± 3.5 µM. The Vmax [3] was 60.3 µmol/min/mg.

B2: 7β-HSDH [R64E]: 7β-HSDH mutant, arginine (R) in position 64 replaced by glutamic acid (E); His tag, SEQ ID NO:4 (protein)
chain: MNLREKYGEWGLILGATEGVGKAFCEKIAAGGMNVVMVGRREEKLNVLAGEIRETYGVETKVVEADFSQPGAAETVFAATEGLDMGFMSYVACLHSFGKIQDTPWEKHEAMINVNVVTFLKCFHHYMRIFAAQDRGAVINVSSMTGISSSPWNGQYGAGKAFILKMTEAVACECEGTGVDVEVITLGTTLTPSLLSNLPGGPQGEAVMKIALTPEECVDEAFEKLGKELSVIAGQRNKDSVHDWKANHTEDEYIRYMGSFYRDLEHHHHHH
modifications: His tag; 7-beta-HSDH R64E Mutant
With B2 the Cofactor specificity [4] was “NADPH”, the Specific activity [5, 6] was 60.2 U/mg and the Volumetric activity [5, 6] was 892.7 U/ml. For the same molecule, the “activity compared with the wild-type enzyme” value ([5]; qualitative statement) was “increase in the specific activity”.

B3: Collinsella aerofaciens 7β-HSDH dual mutant [G39S/R64E], with His tag, SEQ ID NO:6 (Collinsella aerofaciens ATCC 25986; G39S/R64E) (protein)
chain: MNLREKYGEWGLILGATEGVGKAFCEKIAAGGMNVVMVSRREEKLNVLAGEIRETYGVETKVVEADFSQPGAAETVFAATEGLDMGFMSYVACLHSFGKIQDTPWEKHEAMINVNVVTFLKCFHHYMRIFAAQDRGAVINVSSMTGISSSPWNGQYGAGKAFILKMTEAVACECEGTGVDVEVITLGTTLTPSLLSNLPGGPQGEAVMKIALTPEECVDEAFEKLGKELSVIAGQRNKDSVHDWKANHTEDEYIRYMGSFYRDLEHHHHHH
In the case of B3, the Km [2] is reported as 349.3 ± 5.23 µM, the Vmax [2] is reported as 54.3 µmol/min/mg and the Km [3] is reported as 76.6 ± 15.9 µM. It also gave a Vmax [3] of 75.5 µmol/min/mg.

B4: 7β-HSDH [G39S]: 7β-HSDH mutant which contains serine instead of glycine at position 39; His tag, SEQ ID NO:5 (protein)
chain: MNLREKYGEWGLILGATEGVGKAFCEKIAAGGMNVVMVSRREEKLNVLAGEIRETYGVETKVVRADFSQPGAAETVFAATEGLDMGFMSYVACLHSFGKIQDTPWEKHEAMINVNVVTFLKCFHHYMRIFAAQDRGAVINVSSMTGISSSPWNGQYGAGKAFILKMTEAVACECEGTGVDVEVITLGTTLTPSLLSNLPGGPQGEAVMKIALTPEECVDEAFEKLGKELSVIAGQRNKDSVHDWKANHTEDEYIRYMGSFYRDLEHHHHHH
modifications: His tag; 7-beta-HSDH G39S Mutant
With B4 the Cofactor specificity [4] was “NADPH”, the Volumetric activity ([5]; text of example 3, position 39) was 735 U/ml and the specific enzymatic activity ([5]; text of example 3, position 39, per mg protein) was 52.9 U/mg.

B5: Collinsella aerofaciens 7β-HSDH mutant [G39S], with His tag, SEQ ID NO:5 (Collinsella aerofaciens ATCC 25986; G39S) (protein)
chain: MNLREKYGEWGLILGATEGVGKAFCEKIAAGGMNVVMVSRREEKLNVLAGEIRETYGVETKVVRADFSQPGAAETVFAATEGLDMGFMSYVACLHSFGKIQDTPWEKHEAMINVNVVTFLKCFHHYMRIFAAQDRGAVINVSSMTGISSSPWNGQYGAGKAFILKMTEAVACECEGTGVDVEVITLGTTLTPSLLSNLPGGPQGEAVMKIALTPEECVDEAFEKLGKELSVIAGQRNKDSVHDWKANHTEDEYIRYMGSFYRDLEHHHHHH
For B5, the Km [2] was 352.4 ± 42.7 µM, the Vmax [2] was 52 µmol/min/mg and the Km [3] was 34.5 ± 6.6 µM. For the same molecule, the Vmax [3] was 48.8 µmol/min/mg.

B6: 7β-HSDH [R64W]: 7β-HSDH mutant, R in position 64 replaced by W (protein, UniProt A4ECA9 1-263, looked up, variant R64W)
7beta-hydroxysteroid …: MNLREKYGEWGLILGATEGVGKAFCEKIAAGGMNVVMVGRREEKLNVLAGEIRETYGVETKVVWADFSQPGAAETVFAATEGLDMGFMSYVACLHSFGKIQDTPWEKHEAMINVNVVTFLKCFHHYMRIFAAQDRGAVINVSSMTGISSSPWNGQYGAGKAFILKMTEAVACECEGTGVDVEVITLGTTLTPSLLSNLPGGPQGEAVMKIALTPEECVDEAFEKLGKELSVIAGQRNKDSVHDWKANHTEDEYIRYMGSFYRD
With B6 the Specific activity [5, 6] was 10.1 U/mg and the Volumetric activity [5, 6] was 214 U/ml.

B7: 7β-HSDH [T17S]: 7β-HSDH mutant, threonine at position 17 replaced by S (protein, UniProt A4ECA9 1-263, looked up, variant T17S)
7beta-hydroxysteroid …: MNLREKYGEWGLILGASEGVGKAFCEKIAAGGMNVVMVGRREEKLNVLAGEIRETYGVETKVVRADFSQPGAAETVFAATEGLDMGFMSYVACLHSFGKIQDTPWEKHEAMINVNVVTFLKCFHHYMRIFAAQDRGAVINVSSMTGISSSPWNGQYGAGKAFILKMTEAVACECEGTGVDVEVITLGTTLTPSLLSNLPGGPQGEAVMKIALTPEECVDEAFEKLGKELSVIAGQRNKDSVHDWKANHTEDEYIRYMGSFYRD
Work on B7 yielded a Specific activity [5, 7] of 17.2 U/mg and a Volumetric activity [5, 7] of 580 U/ml.

B8: 7β-HSDH [R64I]: 7β-HSDH mutant, R in position 64 replaced by I (protein, UniProt A4ECA9 1-263, looked up, variant R64I)
7beta-hydroxysteroid …: MNLREKYGEWGLILGATEGVGKAFCEKIAAGGMNVVMVGRREEKLNVLAGEIRETYGVETKVVIADFSQPGAAETVFAATEGLDMGFMSYVACLHSFGKIQDTPWEKHEAMINVNVVTFLKCFHHYMRIFAAQDRGAVINVSSMTGISSSPWNGQYGAGKAFILKMTEAVACECEGTGVDVEVITLGTTLTPSLLSNLPGGPQGEAVMKIALTPEECVDEAFEKLGKELSVIAGQRNKDSVHDWKANHTEDEYIRYMGSFYRD
B8 showed a Specific activity [5, 6] of 9.83 U/mg and a Volumetric activity [5, 6] of 171 U/ml.

B9: 7β-HSDH [R64N]: 7β-HSDH mutant, R in position 64 replaced by N (protein, UniProt A4ECA9 1-263, looked up, variant R64N)
7beta-hydroxysteroid …: MNLREKYGEWGLILGATEGVGKAFCEKIAAGGMNVVMVGRREEKLNVLAGEIRETYGVETKVVNADFSQPGAAETVFAATEGLDMGFMSYVACLHSFGKIQDTPWEKHEAMINVNVVTFLKCFHHYMRIFAAQDRGAVINVSSMTGISSSPWNGQYGAGKAFILKMTEAVACECEGTGVDVEVITLGTTLTPSLLSNLPGGPQGEAVMKIALTPEECVDEAFEKLGKELSVIAGQRNKDSVHDWKANHTEDEYIRYMGSFYRD
Work on B9 yielded a Specific activity [5, 6] of 0.6 U/mg and a Volumetric activity [5, 6] of 3.4 U/ml.

B10: 7β-HSDH [T17F]: 7β-HSDH mutant, threonine at position 17 replaced by F (protein, UniProt A4ECA9 1-263, looked up, variant T17F)
7beta-hydroxysteroid …: MNLREKYGEWGLILGAFEGVGKAFCEKIAAGGMNVVMVGRREEKLNVLAGEIRETYGVETKVVRADFSQPGAAETVFAATEGLDMGFMSYVACLHSFGKIQDTPWEKHEAMINVNVVTFLKCFHHYMRIFAAQDRGAVINVSSMTGISSSPWNGQYGAGKAFILKMTEAVACECEGTGVDVEVITLGTTLTPSLLSNLPGGPQGEAVMKIALTPEECVDEAFEKLGKELSVIAGQRNKDSVHDWKANHTEDEYIRYMGSFYRD
In the case of B10, the Cofactor specificity [4] is reported as “NADPH/low”, the Specific activity [5, 7] is reported as 46.1 U/mg and the Volumetric activity [5, 7] is reported as 645.2 U/ml.

B11: 7β-HSDH [R64Y]: 7β-HSDH mutant, R in position 64 replaced by Y (protein, UniProt A4ECA9 1-263, looked up, variant R64Y)
7beta-hydroxysteroid …: MNLREKYGEWGLILGATEGVGKAFCEKIAAGGMNVVMVGRREEKLNVLAGEIRETYGVETKVVYADFSQPGAAETVFAATEGLDMGFMSYVACLHSFGKIQDTPWEKHEAMINVNVVTFLKCFHHYMRIFAAQDRGAVINVSSMTGISSSPWNGQYGAGKAFILKMTEAVACECEGTGVDVEVITLGTTLTPSLLSNLPGGPQGEAVMKIALTPEECVDEAFEKLGKELSVIAGQRNKDSVHDWKANHTEDEYIRYMGSFYRD
With B11 the Specific activity [5, 6] was 9.7 U/mg and the Volumetric activity [5, 6] was 220.3 U/ml.
